In PMC11797550:

Experiments:
[1] = molecular target: IGF-2-like, endogenous in the larval fat body; experiment: Co-IP (anti-IDE antibody) with western blot band quantification; conditions: fat body of larvae; 10% gel in SDS-PAGE; three replicates; parent: est. 0.18; read off a plot
[2] = molecular target: USP1 (ultraspiracle), endogenous in the larval fat body; experiment: as above; conditions: fat body of larvae; 10% gel in SDS-PAGE; three replicates; parent: est. 0.49; read off a plot

“IDE, wild type, endogenous in the larval fat body K179R” gave a response (IGF-2-like/ACTB) [1] of 0.46 and a response [2] of 0.16 USP1/ACTB.
